Target: the molecule itself
Assay: cross-linking

B1: p7 viroporin from hepatitis C virus strain H77 genotype 1a, in proteoliposomes (natural protein, hepatitis C virus genotype 1a strain H77, UniProt P27958 747-809, looked up)
chain: ALENLVILNAASLAGTHGLVSFLVFFCFAWYLKGRWVPGAVYALYGMWPLLLLLLALPQRAYA
B1 was tested, and the “stoichiometry N” value was 6.

— paper PMC5113752 (Protein expression and purification, 2015)
